Assays:
Conditions in all cases: Homo sapiens; 25 uM
[1] = substrate: C[C@H]1COC2=C1C(=O)C(=O)c1c2ccc2c1CCCC2(C)C
[2] = substrate: C[C@H]1COC2=C1C(=O)C(=O)c1c2ccc2c1CCCC2(C)C; remark: listed apart in the source
[3] = substrate: C[C@H]1COC2=C1C(=O)C(=O)c1c2ccc2c1CCCC2(C)C; remark: listed apart in the source
[4] = substrate: C[C@H]1COC2=C1C(=O)C(=O)c1c2ccc2c1CCCC2(C)C; remark: listed apart in the source

B1: Tyrosine-protein phosphatase non-receptor type 11 (Homo sapiens), Q06124 (protein)
chain: MTSRRWFHPNITGVEAENLLLTRGVDGSFLARPSKSNPGDFTLSVRRNGAVTHIKIQNTGDYYDLYGGEKFATLAELVQYYMEHHGQLKEKNGDVIELKYPLNCADPTSERWFHGHLSGKEAEKLLTEKGKHGSFLVRESQSHPGDFVLSVRTGDDKGESNDGKSKVTHVMIRCQELKYDVGGGERFDSLTDLVEHYKKNPMVETLGTVLQLKQPLNTTRINAAEIESRVRELSKLAETTDKVKQGFWEEFETLQQQECKLLYSRKEGQRQENKNKNRYKNILPFDHTRVVLHDGDPNEPVSDYINANIIMPEFETKCNNSKPKKSYIATQGCLQNTVNDFWRMVFQENSRVIVMTTKEVERGKSKCVKYWPDEYALKEYGVMRVRNVKESAAHDYTLRELKLSKVGQGNTERTVWQYHFRTWPDHGVPSDPGGVLDFLEEVHHKQESIMDAGPVVVHCSAGIGRTGTFIVIDILIDIIREKGVDCDIDVPKTIQMVRSQRSGMVQTEAQYRFIYMAVQHYIETLQRRIEEEQKSKRKGHEYTNIKYSLADQTSGDQSPLPPCTPTPPCAEMREDSARVYENVGLMQQQKSFR
Km [1]: 170 µM
Vmax [2]: 6.96 µM/min
kcat/Km [3]: 2150 M⁻¹ s⁻¹
kcat [4]: 0.36 s⁻¹

From ChEMBL document CHEMBL2429837, “Identification of cryptotanshinone as an inhibitor of oncogenic protein tyrosine phosphatase SHP2 (PTPN11)” (J Med Chem, 2013)
